The text below walks through data of PMC8503523, “Lilium regale Wilson WRKY2 Regulates Chitinase Gene Expression During the Response to the Root Rot Pathogen Fusarium oxysporum”.

Data set [1] deals with T1, LrWRKY2 (Lilium regale Wilson, UniProt A0A894THB0 1-343).
T1 sequence: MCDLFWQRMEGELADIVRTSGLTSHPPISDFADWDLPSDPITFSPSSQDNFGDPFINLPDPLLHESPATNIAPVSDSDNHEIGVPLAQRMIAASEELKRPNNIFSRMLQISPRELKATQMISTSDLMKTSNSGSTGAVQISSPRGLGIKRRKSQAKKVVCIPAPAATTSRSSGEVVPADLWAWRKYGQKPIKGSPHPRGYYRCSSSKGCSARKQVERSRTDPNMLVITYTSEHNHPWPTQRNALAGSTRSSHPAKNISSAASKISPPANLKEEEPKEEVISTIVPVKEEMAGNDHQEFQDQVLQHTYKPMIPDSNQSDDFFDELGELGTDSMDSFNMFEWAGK
The data set can be described thus: EMSA; 0.5 ug protein in 20 uL with 7 uL binding buffer (as printed: 100 mM Tris, 500 mM KCl, 10 mM DTT, 50% glycerol, 100 mM MgCl2, 1% NP-40, 1 M KCl, 200 mM EDTA, 1). The conditions noted are these: protein: recombinant, tags: His (pET-32a fusion). For orientation: In EMSA bound probe runs differently from free probe, usually more slowly.

Data set [2] concerns the target T1, LrWRKY2. The data set can be described thus: competition EMSA; 50-fold excess over biotin-labeled N1; shift less intense; 0.5 ug protein in 20 uL with 7 uL binding buffer (as printed: 100 mM Tris, 500 mM KCl, 10 mM DTT, 50% glycerol, 100 mM MgCl2, 1% NP-40, 1 M KCl, 200 mM EDTA, 1). The conditions noted are these: protein: recombinant; tags: His (pET-32a fusion); (only one strand printed; duplex implied by 50-bp).

B1: LrCHI2 promoter W-box probe (dsDNA)
DNA 1: GGCAAACTTTTAGGCCAAGAGATTGACTAGAACCCTCACAATCTCTATAT
DNA 2: ATATAGAGATTGTGAGGGTTCTAGTCAATCTCTTGGCCTAAAAGTTTGCC
On to B1, for which, in the data set with LrWRKY2 [1] ((only one strand printed; duplex implied by 50-bp)), the binding result is “binds”.

B2: LrCHI2 promoter mutant W-box probe (dsDNA)
DNA 1: GGCAAACTTTTAGGCCAAGAGATTACCTAGAACCCTCACAATCTCTATAT
DNA 2: ATATAGAGATTGTGAGGGTTCTAGGTAATCTCTTGGCCTAAAAGTTTGCC
Regarding B2, the binding result with LrWRKY2 [1] is reported as “no binding”.

B3: LrCHI2 promoter W-box competitor, unlabeled (dsDNA)
DNA 1: GGCAAACTTTTAGGCCAAGAGATTGACTAGAACCCTCACAATCTCTATAT
DNA 2: ATATAGAGATTGTGAGGGTTCTAGTCAATCTCTTGGCCTAAAAGTTTGCC
As to B3, the binding result with LrWRKY2 [2] is “binds”.
